What all share (assay): high-throughput RNA pulldown from lysate on Ni-NTA beads; HRP: 50 mM Tris pH 8, 150 mM NaCl, 1 mM beta-mercaptoethanol, 50 ug/ml BSA, 3 ug/ml yeast RNA, 0.5% heparin; ITC and FP: Tris pH 8, 200 mM KCl, 5% glycerol; MST: 50 mM Tris pH 8, 200 mM NaCl, 1 mM DTT, BSA, heparin, 0.05% Tween 20
What all share (details): tags: N-terminal His-eGFP

Series [1] addresses T1, GFP-9S library array, motif 4 ND N98A (synthetic construct, N98A).
T1 chain: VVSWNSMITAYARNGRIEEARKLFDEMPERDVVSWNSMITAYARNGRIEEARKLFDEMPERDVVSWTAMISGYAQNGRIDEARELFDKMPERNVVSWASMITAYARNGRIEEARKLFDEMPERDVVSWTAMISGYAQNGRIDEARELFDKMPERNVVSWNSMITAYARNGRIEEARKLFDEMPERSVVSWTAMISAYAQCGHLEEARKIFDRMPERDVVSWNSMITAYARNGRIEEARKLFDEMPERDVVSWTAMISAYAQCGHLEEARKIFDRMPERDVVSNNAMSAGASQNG

For series [2], the target named is T2, GFP-9S library array, motif 4 ND N98H (synthetic construct, N98H).
T2 chain: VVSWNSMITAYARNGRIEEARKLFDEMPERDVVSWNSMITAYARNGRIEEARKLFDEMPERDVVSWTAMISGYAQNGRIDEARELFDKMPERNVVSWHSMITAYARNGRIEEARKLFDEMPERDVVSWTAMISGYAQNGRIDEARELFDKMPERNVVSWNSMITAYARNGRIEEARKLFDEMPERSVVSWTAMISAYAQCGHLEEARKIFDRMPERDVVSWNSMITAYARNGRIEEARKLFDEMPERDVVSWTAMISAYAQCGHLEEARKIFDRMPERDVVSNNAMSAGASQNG

Series [3] addresses T3, GFP-9S library array, motif 4 ND N98L;D124L (synthetic construct, N98L;D124L).
T3 chain: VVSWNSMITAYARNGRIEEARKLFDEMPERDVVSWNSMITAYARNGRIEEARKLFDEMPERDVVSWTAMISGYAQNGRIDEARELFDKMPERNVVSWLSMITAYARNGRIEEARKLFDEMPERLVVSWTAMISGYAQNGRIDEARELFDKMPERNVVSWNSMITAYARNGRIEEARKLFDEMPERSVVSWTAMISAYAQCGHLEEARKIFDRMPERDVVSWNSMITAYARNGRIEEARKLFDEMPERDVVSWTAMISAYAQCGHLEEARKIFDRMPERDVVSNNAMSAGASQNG

The target of series [4] is T4, GFP-9S library array, motif 4 ND N98M;D124C (synthetic construct, N98M;D124C).
T4 chain: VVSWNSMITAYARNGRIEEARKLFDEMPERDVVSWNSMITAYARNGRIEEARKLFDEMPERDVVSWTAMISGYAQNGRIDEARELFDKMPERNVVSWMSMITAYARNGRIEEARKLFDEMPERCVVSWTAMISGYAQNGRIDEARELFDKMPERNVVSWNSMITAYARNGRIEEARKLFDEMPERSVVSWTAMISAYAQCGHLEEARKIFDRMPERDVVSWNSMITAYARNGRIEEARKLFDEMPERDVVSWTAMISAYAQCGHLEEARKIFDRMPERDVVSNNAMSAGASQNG

The target in series [5] is T5, GFP-9S library array, motif 4 ND N98W;D124F (synthetic construct, N98W;D124F).
T5 chain: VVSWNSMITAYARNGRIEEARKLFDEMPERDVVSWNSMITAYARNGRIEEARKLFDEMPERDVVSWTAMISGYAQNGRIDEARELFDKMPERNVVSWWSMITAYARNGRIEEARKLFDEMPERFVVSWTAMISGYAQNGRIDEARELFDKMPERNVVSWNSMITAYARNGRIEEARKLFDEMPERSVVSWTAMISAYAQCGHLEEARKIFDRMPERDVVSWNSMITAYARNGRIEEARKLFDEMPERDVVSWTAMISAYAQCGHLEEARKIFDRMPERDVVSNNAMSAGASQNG

B1: Cy5-rpoA (ssRNA)
RNA: AUUACACGUGA
One may read the Kd as the concentration at which binding is half-saturated. On to B1, for which the dissociation constant (Kd) in series [1] (label: 5' Cy5) was 194 nM; in series [2] (label: 5' Cy5), 144 nM; in series [3] (label: 5' Cy5), 74.9 nM; in series [4] (label: 5' Cy5), 99.7 nM; in series [5] (label: 5' Cy5) it was 95.8 nM.

B2: Cy5-rpoA-G (ssRNA)
RNA: AUUAGACGUGA
B2: the Kd in series [1] (label: 5' Cy5) amounted to 156 nM; in series [2] (label: 5' Cy5), 26.5 nM; in series [3] (label: 5' Cy5), 76.1 nM; in series [4] (label: 5' Cy5) it was 68.8 nM; in series [5] (label: 5' Cy5) it was 80.4 nM.

B3: IR-rpoA-A (ssRNA)
RNA: AUUAAACGUGA
For the molecule B3, the dissociation constant (Kd) in series [1] (label: 5' IRDye 800CW) was found to be 223 nM; in series [2] (label: 5' IRDye 800CW), 465 nM; in series [3] (label: 5' IRDye 800CW), 157 nM; in series [4] (label: 5' IRDye 800CW), 85.3 nM; in series [5] (label: 5' IRDye 800CW), 274 nM.

B4: IR-rpoA-U (ssRNA)
RNA: AUUAUACGUGA
Take B4: the Kd was 50.8 nM in series [1] (label: 5' IRDye 800CW); 65.7 nM in series [2] (label: 5' IRDye 800CW); 158 nM in series [3] (label: 5' IRDye 800CW); 193 nM in series [4] (label: 5' IRDye 800CW); 273 nM in series [5] (label: 5' IRDye 800CW).

The values above are taken from publication PMC8809517, “Cofactor-independent RNA editing by a synthetic S-type PPR protein”.
